# From patent US9340596
# What was measured:
# Assay in all cases: cell-based or functional assay
# [1] = target: αVβ3 integrin (human) (UniProt P06756)
# [2] = target: death receptor
# [3] = target: αVβ5 integrin (human) (UniProt P06756)
# Sequence of αVβ5 integrin (human) (P06756 31-1048, chain 1 of 2): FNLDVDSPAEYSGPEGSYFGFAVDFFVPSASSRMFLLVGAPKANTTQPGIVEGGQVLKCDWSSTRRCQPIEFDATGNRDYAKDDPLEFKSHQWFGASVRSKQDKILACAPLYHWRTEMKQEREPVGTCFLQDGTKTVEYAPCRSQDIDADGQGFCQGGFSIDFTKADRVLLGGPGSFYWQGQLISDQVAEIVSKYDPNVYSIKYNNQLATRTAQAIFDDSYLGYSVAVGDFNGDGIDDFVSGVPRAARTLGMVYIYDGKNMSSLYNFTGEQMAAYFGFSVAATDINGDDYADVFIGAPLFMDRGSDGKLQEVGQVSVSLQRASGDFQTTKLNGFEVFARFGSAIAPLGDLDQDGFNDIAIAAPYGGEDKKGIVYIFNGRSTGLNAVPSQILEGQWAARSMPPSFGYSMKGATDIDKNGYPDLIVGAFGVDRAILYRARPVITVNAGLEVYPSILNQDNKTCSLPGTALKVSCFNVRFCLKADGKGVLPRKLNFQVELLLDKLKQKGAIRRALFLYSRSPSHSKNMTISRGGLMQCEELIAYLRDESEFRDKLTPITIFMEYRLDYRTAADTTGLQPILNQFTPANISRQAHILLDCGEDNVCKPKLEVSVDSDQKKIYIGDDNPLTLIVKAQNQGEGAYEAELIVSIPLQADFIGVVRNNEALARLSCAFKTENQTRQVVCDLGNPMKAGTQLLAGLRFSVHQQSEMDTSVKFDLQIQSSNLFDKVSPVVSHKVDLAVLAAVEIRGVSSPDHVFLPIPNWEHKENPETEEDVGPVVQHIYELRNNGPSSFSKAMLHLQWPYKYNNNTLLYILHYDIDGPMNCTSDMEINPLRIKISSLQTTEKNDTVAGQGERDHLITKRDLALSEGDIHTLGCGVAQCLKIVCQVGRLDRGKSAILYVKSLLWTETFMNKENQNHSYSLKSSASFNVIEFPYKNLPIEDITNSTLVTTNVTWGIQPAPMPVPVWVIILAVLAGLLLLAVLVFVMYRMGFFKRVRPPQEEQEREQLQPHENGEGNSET
# Sequence of αVβ5 integrin (human) (P18084 24-799, chain 2 of 2, further chain): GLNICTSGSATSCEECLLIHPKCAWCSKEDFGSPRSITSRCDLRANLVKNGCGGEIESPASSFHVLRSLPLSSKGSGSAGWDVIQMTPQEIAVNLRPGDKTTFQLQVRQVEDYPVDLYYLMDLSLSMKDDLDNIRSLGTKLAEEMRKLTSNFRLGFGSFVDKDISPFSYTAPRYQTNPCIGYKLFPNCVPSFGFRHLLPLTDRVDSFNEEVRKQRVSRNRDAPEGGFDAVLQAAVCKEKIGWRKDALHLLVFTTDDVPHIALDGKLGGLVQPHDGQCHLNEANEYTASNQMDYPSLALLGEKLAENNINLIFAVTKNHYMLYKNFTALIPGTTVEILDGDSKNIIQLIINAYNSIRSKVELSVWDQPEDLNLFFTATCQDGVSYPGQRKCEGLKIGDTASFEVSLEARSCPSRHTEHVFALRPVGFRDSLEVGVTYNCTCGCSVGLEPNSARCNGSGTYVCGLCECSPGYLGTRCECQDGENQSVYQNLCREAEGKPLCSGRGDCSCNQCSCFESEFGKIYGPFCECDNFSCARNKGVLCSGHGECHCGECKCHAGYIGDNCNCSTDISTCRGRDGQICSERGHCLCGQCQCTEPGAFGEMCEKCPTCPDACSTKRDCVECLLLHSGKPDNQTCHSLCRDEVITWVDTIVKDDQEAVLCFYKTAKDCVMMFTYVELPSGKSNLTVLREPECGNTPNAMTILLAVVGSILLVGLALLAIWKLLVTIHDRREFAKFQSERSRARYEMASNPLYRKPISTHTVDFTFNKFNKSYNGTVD
# Sequence of αVβ3 integrin (human) (P06756 31-1048, chain 1 of 2): as the sequence (P06756 31-1048, chain 1 of 2) above
# Sequence of αVβ3 integrin (human) (P05106 27-788, chain 2 of 2, further chain): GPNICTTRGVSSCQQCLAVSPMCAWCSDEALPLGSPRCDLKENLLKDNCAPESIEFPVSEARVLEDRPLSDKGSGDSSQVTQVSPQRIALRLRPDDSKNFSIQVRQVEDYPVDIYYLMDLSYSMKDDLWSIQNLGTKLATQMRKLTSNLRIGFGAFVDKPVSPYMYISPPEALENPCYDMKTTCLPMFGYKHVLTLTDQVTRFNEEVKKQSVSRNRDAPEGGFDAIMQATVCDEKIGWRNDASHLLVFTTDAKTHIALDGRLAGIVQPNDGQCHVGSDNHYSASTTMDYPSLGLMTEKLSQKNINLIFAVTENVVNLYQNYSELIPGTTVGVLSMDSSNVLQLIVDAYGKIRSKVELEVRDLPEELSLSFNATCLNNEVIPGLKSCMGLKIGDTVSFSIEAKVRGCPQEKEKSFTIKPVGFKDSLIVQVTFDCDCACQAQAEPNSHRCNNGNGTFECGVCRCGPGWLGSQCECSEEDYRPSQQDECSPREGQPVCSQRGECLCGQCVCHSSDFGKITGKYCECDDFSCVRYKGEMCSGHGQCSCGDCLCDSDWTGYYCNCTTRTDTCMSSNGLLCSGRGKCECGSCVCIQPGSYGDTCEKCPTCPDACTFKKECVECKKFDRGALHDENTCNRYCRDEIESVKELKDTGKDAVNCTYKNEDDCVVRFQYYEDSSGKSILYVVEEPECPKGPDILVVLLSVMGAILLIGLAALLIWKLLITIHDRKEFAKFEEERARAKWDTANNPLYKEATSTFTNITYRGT
substance,measurement,setting,value
"RGD-L-TRAIL (human TRAIL variant: short peptide …, connecting peptide of five glycines, TRAIL) (from UniProt P50591 114-281)","fold reduction of the medial lethal dose against wild-type TRAIL, COLO-205 cells",[1],9.5 times
same,"fold reduction of the medial lethal dose against wild-type TRAIL, Jurkat cells",[1],16.3 times
same,"fold reduction of the medial lethal dose against wild-type TRAIL, MDA-MB-231 cells",[1],1.9 times
same,apoptosis rate of COLO-205 cells at 2.43 ng/ml (Annexin V-FITC and PI double staining),[2],87.5%
same,"caspase-8 and caspase-3 activity in Jurkat cells after two hours, against the same dose of wild-type TRAIL",[2],2.5 times
same,medial lethal dose on COLO-205 cells,[2],0.37 ng/mL
same,medial lethal dose on Jurkat cells,[2],0.41 ng/mL
same,medial lethal dose on MDA-MB-231 cells,[2],1.2 ng/mL
same,"fold reduction of the medial lethal dose against wild-type TRAIL, COLO-205 cells",[3],9.5 times
same,"fold reduction of the medial lethal dose against wild-type TRAIL, Jurkat cells",[3],16.3 times
same,"fold reduction of the medial lethal dose against wild-type TRAIL, MDA-MB-231 cells",[3],1.9 times
